Test results: publication PMC10179162

Assays:
[1] = target: chimeric HPV16 L1:P18I10 capsid protein (293F-derived, chromatography-purified L1:P18I10 VLP) (human papillomavirus type 16 | HIV-1) (UniProt P03101); assay: non-reducing SDS-PAGE (disulfide cross-linking); purified VLPs mixed with 2x Laemmli sample buffer with or without 20 mM DTT, 15 min at room temperature; 8-16% gel; blot probed with anti-HPV16 L1 mAb CAMVIR-1
[2] = target: chimeric HPV16 L1:P18I10 capsid protein (BEVS/IC-derived, ultracentrifugation-purified L1:P18I10 VLP) (human papillomavirus type 16 | HIV-1) (UniProt P03101); assay: as above

Substance | percent disulfide-bonded into oligomers (without DTT) [1] [%] | percent monomeric (with DTT) [1] [%] | percent disulfide-bonded into oligomers (without DTT) [2] [%] | percent monomeric (with DTT) [2] [%]
chimeric HPV16 L1:P18I10 capsid protein (293F-derived, chromatography-purified L1:P18I10 VLP) (from UniProt P03101 1-129; P03101 137-505) | > 99 | 80 |  | 
chimeric HPV16 L1:P18I10 capsid protein (BEVS/IC-derived, ultracentrifugation-purified L1:P18I10 VLP) (from UniProt P03101 1-129; P03101 137-505) |  |  | > 99 | 50
